Laboratory results from patent US10240123B2, “Method for preparing induced paraxial mesoderm progenitor (IPAM) cells and their use” (INSERM (INSTITUT NATIONAL DE LA SANTE ET DE LA RECHERCHE …, priority 2011, dated 2019).
Entries after “also recorded” stand apart in the source; their conditions may differ.

B1: Follistatin: recombinant protein BMP inhibitor (protein, UniProt P19883 30-344, looked up)
Follistatin: GNCWLRQAKNGRCQVLYKTELSKEECCSTGRLSTSWTEEDVNDNTLFKWMIFNGGAPNCIPCKETCENVDCGPGKKCRMNKKNKPRCVCAPDCSNITWKGPVCGLDGKTYRNECALLKARCKEQPELEVQYQGRCKKTCRDVFCPGSSTCVVDQTNNAYCVTCNRICPEPASSEQYLCGNDGVTYSSACHLRKATCLLGRSIGLAYEGKCIKAKSCEDIQCTGGKKCLWDFKVGRGRCSLCDELCPDSKSDEPVCASDNATYASECAMKEAACSSGVLLEVKHSGSCNSISEDTEEEEEDEDQDYSFPISSILEW
B2: R-spondin3: secreted protein of the R-spondin family that activates the Wnt signaling pathway; recombinant (protein, UniProt Q9BXY4 22-272, looked up)
R-spondin-3: QNASRGRRQRRMHPNVSQGCQGGCATCSDYNGCLSCKPRLFFALERIGMKQIGVCLSSCPSGYYGTRYPDINKCTKCKADCDTCFNKNFCTKCKSGFYLHLGKCLDNCPEGLEANNHTMECVSIVHCEVSEWNPWSPCTKKGKTCGFKRGTETRVREIIQHPSAKGNLCPPTNETRKCTVQRKKCQKGERGKKGRERKRKKPNKGESKEAIPDSKSLESSKEIPEQRENKQQQKKRKVQDKQKSVSVSTVH
B3: R-spondin2: secreted protein of the R-spondin family that activates the Wnt signaling pathway; recombinant (protein, UniProt Q6UXX9 22-243, looked up)
R-spondin-2: QGNRWRRSKRASYVSNPICKGCLSCSKDNGCSRCQQKLFFFLRREGMRQYGECLHSCPSGYYGHRAPDMNRCARCRIENCDSCFSKDFCTKCKVGFYLHRGRCFDECPDGFAPLEETMECVEGCEVGHWSEWGTCSRNNRTCGFKWGLETRTRQIVKKPVKDTILCPTIAESRRCKMTMRHCPGGKRTPKAKEKRNKKKKRKLIERAQEQHSVFLATDRANQ
B4: Dkk1: secreted extracellular Wnt antagonist, canonical Wnt inhibitor (protein, UniProt O94907 32-266, looked up)
Dickkopf-related protein 1: TLNSVLNSNAIKNLPPPLGGAAGHPGSAVSAAPGILYPGGNKYQTIDNYQPYPCAEDEECGTDEYCASPTRGGDAGVQICLACRKRRKRCMRHAMCCPGNYCKNGICVSSDQNHFRGEIEETITESFGNDHSTLDGYSRRTTLSSKMYHTKGQEGSVCLRSSDCASGLCCARHFWSKICKPVLKEGQVCTKHRRKGSHGLEIFQRCYCGEGLSCRIQKDHHQASNSSRLHTCQRH
B5: Noggin: recombinant protein known to inhibit BMP4 (protein, UniProt Q13253 28-232, looked up)
Noggin: QHYLHIRPAPSDNLPLVDLIEHPDPIFDPKEKDLNETLLRSLLGGHYDPGFMATSPPEDRPGGGGGAAGGAEDLAELDQLLRQRPSGAMPSEIKGLEFSEGLAQGKKQRLSKKLRRKLQMWLWSQTFCPVLYAWNDLGSRFWPRYVKVGSCFSKRSCSVPEGMVCKPSKSVHLTVLRWRCQRRGGQRCGWIPIQYPIISECKCSC

Tests used:
Msgn1RepV mouse ES cells = assay: Msgn1RepV reporter mouse ES cell differentiation, YFP+ (iPAM) cells by flow cytometry; format: cell-based; settings: for effect on number of YFP+ cells (iPAM induction): 4 days of differentiation
Procedure: Undifferentiated mouse ES cells […] derived) were maintained on gelatin-coated dishes in DMEM supplemented with 15% fetal bovine serum (FBS; from PAA), penicillin, streptomycin, 2 mM L-Glutamine, 0.1 mM non essential amino acids, 1 mM sodium pyruvate, 0.2% β-mercaptoethanol and 1,500 U/mL LIF. ES cells were co-cultured with mytomicin-inactivated MEFs (feeders). Undifferentiated human ES cells were cultured on plates coated with matrigel (BD Biosciences) in mTeSR medium ([…] Technologies). Cultures were maintained in an incubator in 5% CO2 at 37° C. ES cells were trypsinized and plated at various densities in gelatin coated, feeder-free, 24 well plates directly in serum-based (15% FBS) or serum-replacement (15% KSR, Invitrogen) conditions supplemented with factors, and DMSO (Sigma). Recombinant proteins were obtained commercially (R&D) and stock solutions were prepared according to manufacturer's recommendation. The GSK-3ß inhibitor CHIR99021 and the BMP type I receptors inhibitor Dorsomorphin were purchased from Stemgent and prepared according to the manufacturer's recommendations. Fluorescent reporter analysis and image acquisition were done on a Zeiss Axiovert system. Cell cultures were dissociated by trypsinization, analyzed by flow cytometry on a FACScalibur (BD Biosciences) according to YFP expression. Data were further analyzed with MoFlo software (Beckman Coulter) and FlowJo software. In order to optimize the differentiation conditions for paraxial mesoderm progenitors, we developed a manual screening assay, testing candidate growth factors and drugs interfering with various signaling pathways on ES cells. The […] reporter cells were plated at a defined density in 24-well plates coated with gelatin (0.1%). Two basal culture media were selected: a DMEM based medium containing 15% fetal bovine serum (FBS, high serum) and a defined serum-free medium containing 15% KSR (Invitrogen/Gibco). These basal media were supplemented with candidate factors on day 0 of differentiation. Control and experimental conditions were cultured in parallel. Cells were left to differentiate for three to four days with medium changed on day 2 or 3. Cell cultures were analyzed on day 3 and 4 of differentiation visually and by flow cytometry for YFP+ population quantification.

BMP4 = BMP4 and PSM marker expression in Msgn1-YFP+ cells (microarray, qRT-PCR); format: cell-based, mouse; settings: for iPAM maturation, PSM specific marker expression: added to differentiation medium
Procedure: Mouse E9.5 embryo PSMs were microdissected and processed as previously described (Krol et al, 2011), and prepared samples were run on Affymetrix GeneChip arrays. For differentiated cell cultures, iPAMs were sorted by flow-cytometry based on their Msgn1-YFP+ expression, and samples were prepared for microarrays. Experiments were conducted on biological triplicates. Datasets were processed using Affymetrix Microarray Suite (MAS) 5.0. Total RNA was extracted from ES cell cultures using Trizol (Invitrogen) or with the […] plus mini-kit (Qiagen). RT-PCR was performed on 5 ng total RNA using QuantiFast SYBR Green RT-PCR Kit (Qiagen), appropriate primers and run on a LightCycler 480II (Roche). GAPDH was used as the internal control. To counteract this BMP4 activity, we tested the effect of addition of recombinant Noggin (Nog) protein known to inhibit BMP4, to the differentiation medium. […] We further defined both the optimal concentration and timing of Noggin addition. […] To better characterize the impact of Noggin on Msgn1-YFP+ cells, we performed microarrays on the Msgn1-YFP+ induced paraxial mesoderm progenitors (iPAM) population at day 3 and 4 of differentiation (FIG. 11, compare conditions RDN and RD). We screened a set of BMP inhibitors, including recombinant proteins Noggin (Nog), Chordin (Chd), Chordin-like 1 (Chdl1), Follistatin (Fst), Follistatin-like 1 (Fstl1), Dan family protein including Cerberus 1 (Cerberus) and Gremlin 1 (Grem1); at varying concentration range (10-200 ng/mL), and various time-window (day 0-4, day 1-4) and analyzed the impact on BMP4 and the PSM marker Tbx6 expression. Additionally, we tested the chemical compound Dorsomorphin (Compound C), a specific BMP type I receptor inhibitor, at various concentration (0.1-1 μM) and various time-window (day 0-4, day 1-4).

canonical Wnt signaling = assay: BAT-luc luciferase reporter for canonical Wnt signaling in ES cells; format: cell-based, mouse; settings: Rspo3 10 ng/mL, 1% FBS medium
HUES1 cells = assay: qRT-PCR of paraxial mesoderm progenitor markers in differentiating human ES cells; format: cell-based; settings: 15% FBS containing medium, 3 to 10 days of culture
Procedure: Comparison of the expression of paraxial mesoderm progenitor markers Brachyury (A), PDGFRa (B), Tbx6 (C), Msgn1 (D) measured by Q RT-PCR in HUES1 undifferentiated or cultured in 15% FBS containing medium with or without Rspo3 for up to 10 days. Relative expression to undifferentiated HUES1 cells is shown (fold induction).
Total RNA was extracted from ES cell cultures using Trizol (Invitrogen) or with the Rnaeasy plus mini-kit (Qiagen). RT-PCR was performed on 5 ng total RNA using QuantiFast SYBR Green RT-PCR Kit (Qiagen), appropriate primers and run on a LightCycler 480II (Roche). GAPDH was used as the internal control.
Next, to confirm that R-spondin also induces paraxial mesoderm progenitors (iPAM) cells from human ES cells differentiation, HUES1 cells were plated as single cells and differentiated in 15% FBS containing medium with or without Rspo3. qRT-PCR time course analysis for paraxial mesoderm progenitor markers expression was performed (FIG. 10).

Row | Molecule | effect on number of YFP+ cells (iPAM induction) (Msgn1RepV mouse ES cells; 15% FBS medium) | iPAM maturation, PSM specific marker expression (BMP4) | other results
1 | C[S+](C)[O-] [DMSO, Dimethyl sulfoxide, reference compound] | increase of YFP+ cells |  | 
2 | c1cc(-c2cnn3cc(-c4ccc(OCCN5CCCCC5)cc4)cnc23)ccn1 [Dorsomorphin, 6-[4-(2-Piperidin-1-yl-ethoxy)phenyl]-3-pyridin-4-yl-pyrazolo [1,5-a]pyrimidine, reference compound] |  | promoting induced paraxial mesoderm progenitors (iPAM) maturation | 
3 | Cc1c[nH]c(-c2cnc(NCCNc3ccc(C#N)cn3)nc2-c2ccc(Cl)cc2Cl)n1 [CHIR99021, reference compound] | as efficient as Rspo-3 |  | 
4 | B1 |  | promoting induced paraxial mesoderm progenitors (iPAM) maturation | 
5 | B2 | significantly increase the number of YFP+ cells |  | luciferase from BAT-luc canonical Wnt reporter (canonical Wnt signaling): strongly activated; luciferase from BAT-luc canonical Wnt reporter (canonical Wnt signaling; listed as Rspo3): strongly activates the canonical Wnt response; expression of paraxial mesoderm progenitor markers (qRT-PCR) (HUES1 cells): induction of the paraxial mesoderm progenitor markers, Brachyury, PDGFRa, Tbx6 and Msgn1 is observed; also recorded: Strong activation of Msgn1 and Tbx6; induction of YFP+ cells (Msgn1RepV mouse ES cells; 10 ng/mL, both FBS based and KSR based medium, 4 days): up to 70%; YFP+ population of the total population (Msgn1RepV mouse ES cells; day 4 of differentiation, 15% FBS medium, R-spondin3 10 ng/mL): more than 70%
6 | B3 | significantly increase the number of YFP+ cells |  | 
7 | B4 | sharp decrease of YFP+ induction |  | 
8 | B5 |  | upregulation of several PSM specific markers; also recorded: promoting induced paraxial mesoderm progenitors (iPAM) maturation | BMP4 expression in Msgn1-YFP+ cells (BMP4; added to differentiation medium with Rspo3 and DMSO, day 3 and 4): effectively repress BMP4 expression; also recorded: represses BMP4 expression; total number of Msgn1-YFP+ iPAM cells or total cell number in culture (Msgn1RepV mouse ES cells; added to differentiation medium): does not change the total number
